Values of other authors as cited in paper PMC2862573.

Target: CCR2 loop-2 peptide (Homo sapiens)

Substance: MCP-1 (from UniProt P13500)
- Kd: 22 µM
